Source: paper doi:10.1101/2020.02.05.935528

Molecular target: Nitrosopumilus maritimus 4-hydroxybutyryl-CoA dehydratase (Nitrosopumilus maritimus)
Assay: crystal structure

stoichiometry N: 4
Substance: Nitrosopumilus maritimus 4-hydroxybutyryl-CoA dehydratase (enzyme)
